Source: US20090074766A1, “Methods of inhibiting HIV-2 infection” (priority 2007, published 2009)
Where “and” joins values, the source holds several entries; their conditions need not be identical. Identical values can stand only once. Entries after “also recorded” stand apart in the source; their conditions may differ. Like-named read-outs stand apart in the source and are kept apart here.

Columns and labels:
CCR5 = target: T1, CCR5 (Homo sapiens, UniProt P51681); assay: Competition binding: inhibition of 3H-UK-427,857 binding to CEM.NKR-CCR5 cells; conditions: read-out: EC50 for inhibition of 3H-UK-427,857 binding; 2 nM 3H-UK-427,857, pre-incubation with unlabeled compound
T1 construct: host or cells: CEM.NKR-CCR5 (transduced human T cell leukemia line)
Excerpt: Cells were washed and then analyzed for radioactivity by scintillation counting.
The cells were washed in PBSA and lysed with 0.5N HCl prior to scintillation counting using a Wallac1410 instrument.

R5 HIV-2 310072 = assay: Inhibition of replication in PBMC cultures, RT activity readout: HIV-2 310072; type: cell-based
Method: (§1) Viruses: All virus isolates were grown and titered exclusively in stimulated PBMC as described previously. […] The HIV-2 isolates used in this study have been previously described (Owen, S. M., Ellenberger, D., Rayfield, M., Wiktor, S., Michel, P., Grieco, M. H., Gao, F., Hahn, B. H., and Lai, R. B. 1998. Genetically Divergent Strains of Human Immunodeficiency Virus Type 2 Use Multiple Coreceptors for Entry. J Virol 72:5425-5432) and were obtained from the NIH AIDS Research and Reference Reagent Program.
(§2) PA14 (Lot # DF-021204) was produced for reagent use in the Research & Development laboratories of Progenics Pharmaceuticals Inc.
(§3) Inhibition of HIV-1 and HIV-2 replication in PBMC cultures: PBMC were isolated from 34 healthy blood donors with Ficoll-Hypaque (all media from Cellgro, Herndon, Va.) and depleted of CD8+ cells using RosetteSep CD8 depletion cocktail (StemCell Technologies) according to the manufacturer's instructions. Equal numbers of cells from each donor were then separately stimulated with 5 ug phytohemagglutinin/ml (Sigma, St. Louis, Mo.) or with surface-immobilized anti-CD3 antibody OKT3 in RPMI 1640 medium containing 10% fetal calf serum, 100 Units of interleukin-2/ml (NIH AIDS Research and Reference Reagent Program), glutamine, and antibiotics (PBMC culture medium) as previously described. After 72 hours, equal numbers of PBMC stimulated by one of these two methods from each donor were combined for use in infection assays as follows. […] The virus inoculum was adjusted to 400 to 2,000 times the TCID50 per ml in PBMC culture medium, and a 50-ul aliquot was added to each culture. The inhibitory doses refer to the concentrations of the agents present at this point in the culture, when virus, cells, and inhibitors were all present at their final concentrations. Reverse Transcriptase (RT) activity was measured on Day 7 post infection (pi) for HIV-1 and Day 10 pi for HIV-2 by the Reverse Transcriptase Assay, Colorimetric kit, #11 468 120 910, Roche (Switzerland) according to the manufacturer's instructions with the following exception: neither ultracentrifugation nor PEG precipitation of the culture supernatants was performed before viral lysis.
(§4) The inhibition data were analyzed using GraphPad Prism software (GraphPad Software, San Diego, Calif.). A 4-parameter logistic fit was used calculate the concentration of inhibitor that afforded a 50% and a 90% reduction in RT activity. […] The % inhibitions where best-fit curve reached a top plateau, also as calculated by GraphPad Prism software, are reported as well as maximum percent inhibition (MPI). […] Inhibition curves with a poor sigmoid fit (R^2<0.7) were excluded from data analysis.

R5 HIV-2 SLRHC = assay: Inhibition of replication in PBMC cultures, RT activity readout: HIV-2 SLRHC; type: cell-based
Method: as §1, §2, §3, §4

R5X4 HIV-2 77618 = assay: Inhibition of replication in PBMC cultures, RT activity readout: HIV-2 77618; type: cell-based
Method: as §1, §2, §3, §4

R5 HIV-2 isolates = assay: Inhibition of replication in PBMC cultures, RT activity readout: panel of five R5 HIV-2 isolates; type: cell-based
Method: (§5) Two well-characterized R5 HIV-1 isolates were included for comparative purposes.
Viruses: All virus isolates were grown and titered exclusively in stimulated PBMC as described previously.
Equal numbers of cells from each donor were then separately stimulated with 5 ug phytohemagglutinin/ml (Sigma, St. Louis, Mo.) or with surface-immobilized anti-CD3 antibody OKT3 in RPMI 1640 medium containing 10% fetal calf serum, 100 Units of interleukin-2/ml (NIH AIDS Research and Reference Reagent Program), glutamine, and antibiotics (PBMC culture medium) as previously described. After 72 hours, equal numbers of PBMC stimulated by one of these two methods from each donor were combined for use in infection assays as follows. […] The virus inoculum was adjusted to 400 to 2,000 times the TCID50 per ml in PBMC culture medium, and a 50-ul aliquot was added to each culture. The inhibitory doses refer to the concentrations of the agents present at this point in the culture, when virus, cells, and inhibitors were all present at their final concentrations.
as §4
The panel was tested five times on a different PBMC donor pool each time, using the RT ELISA as a readout.

R5X4 HIV-2 isolates = assay: Inhibition of replication in PBMC cultures, RT activity readout: two R5X4 HIV-2 isolates; type: cell-based; conditions: result in words
Method: as §5, §1
Inhibition of HIV-1 and HIV-2 replication in PBMC cultures: PBMC were isolated from 34 healthy blood donors with Ficoll-Hypaque (all media from Cellgro, Herndon, Va.) and depleted of CD8+ cells using RosetteSep CD8 depletion cocktail (StemCell Technologies) according to the manufacturer's instructions. […] Reverse Transcriptase (RT) activity was measured on Day 7 post infection (pi) for HIV-1 and Day 10 pi for HIV-2 by the Reverse Transcriptase Assay, Colorimetric kit, #11 468 120 910, Roche (Switzerland) according to the manufacturer's instructions with the following exception: neither ultracentrifugation nor PEG precipitation of the culture supernatants was performed before viral lysis.
The inhibition data were analyzed using GraphPad Prism software (GraphPad Software, San Diego, Calif.). […]

CCR5 lymphocytes = type: in vivo, human
Method: Whole blood specimens were combined separately with the indicated phycoerythrin-labeled anti-CCR5 antibodies or with appropriate isotype-control antibodies. Erythocytes were lysed and leukocytes were stabilized using the ImmunoPrep Reagent System (Beckman Coulter), and the cells were analyzed on a TQ Prep™ flow cytometry workstation (Beckman Coulter). Data were expressed as the percent of CCR5 cells relative to all cells gated in the analysis.
For up to 60 days post-treatment, at the times indicated in FIG. 6, blood was collected and analyzed for CCR5 lymphocyte levels.
Background binding of isotype control antibodies was unchanged.

[1] = test system: viruses in PRO 140-treated subjects; assay: Phase 1b: virus susceptibility of subjects' viruses (PhenoSense Assay); type: cell-based, HIV-1
Excerpt: A non-limiting example of a widely used phenotypic HIV drug resistance test is the PhenoSense™ HIV assay, which measures the sensitivity of a virus to antiretroviral drugs.

HIV-1JR-CSF = assay: hu-PBL SCID mouse model infected with HIV-1JR-CSF (FIG. 5); type: in vivo; conditions: multiple doses after steady state viral levels, FIG. 5 legend
Method: SCID mice were reconstituted with normal human peripheral blood mononuclear cells and infected 2 weeks later with HIV-1JR-CSF. Multiple doses of PRO 140 were administered following attainment of steady state viral levels. Plasma viral loads pre- and post-injection are indicated.

HIV-1 = conditions: Olson et al., 1999; Trkola et al., 2001; cited from earlier work
[2] = Median line of the five R5 HIV-2 isolates

T1 sequence (P51681 whole entry): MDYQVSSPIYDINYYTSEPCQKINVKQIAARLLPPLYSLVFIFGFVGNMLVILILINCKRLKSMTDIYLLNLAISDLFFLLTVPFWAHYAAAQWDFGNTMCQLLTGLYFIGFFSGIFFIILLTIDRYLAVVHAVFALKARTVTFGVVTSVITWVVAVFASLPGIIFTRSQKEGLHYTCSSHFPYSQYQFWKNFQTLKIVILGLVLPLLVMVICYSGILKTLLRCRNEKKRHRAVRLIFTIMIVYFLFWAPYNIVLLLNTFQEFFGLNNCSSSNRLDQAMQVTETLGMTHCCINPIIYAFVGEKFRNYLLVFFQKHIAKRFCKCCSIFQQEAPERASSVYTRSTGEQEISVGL

B1: PRO 140: humanized IgG4,κ anti-CCR5 monoclonal antibody, humanized version of murine mAb PA14 (antibody, chains of the INN, looked up, V domains shown)
VH: EVQLVESGGGLVKPGGSLRLSCAASGYTFSNYWIGWVRQAPGKGLEWIGDIYPGGNYIRNNEKFKDKTTLSADTSKNTAYLQMNSLKTEDTAVYYCGSSFGSNYVFAWFTYWGQGTLVTVSS
VL: DIVMTQSPLSLPVTPGEPASISCRSSQRLLSSYGHTYLHWYLQKPGQSPQLLIYEVSNRFSGVPDRFSGSGSGTDFTLKISRVEAEDVGVYYCSQSTHVPLTFGQGTKVEIK
With B1 the EC50 (CCR5) was 14 nM, the “EC50 (median)” value (R5 HIV-2 310072; HIV-2 310072, R5) was 0.08 µg/mL and the “EC90 (median)” value (R5 HIV-2 310072; HIV-2 310072, R5) was 1.4 µg/mL. For the same molecule, the “MPI (maximum percent inhibition)” value (R5 HIV-2 310072; R5 HIV-2 310072, individual assays (Source)) was 92% and 96% and 97%, the “MPI, Median” value (R5 HIV-2 310072; R5 HIV-2 310072, median of assays with R^2 >= 0.7) was 96% and the “EC50 (median)” value (R5 HIV-2 SLRHC; HIV-2 SLRHC, R5) was 0.57 µg/mL. For the same molecule, the “EC90 (median)” value (R5 HIV-2 SLRHC; HIV-2 SLRHC, R5) was 21 µg/mL, the “MPI (maximum percent inhibition)” value (R5 HIV-2 SLRHC; R5 HIV-2 SLRHC, individual assays (Source)) was 104% and 135% and 127% and 150% and the “MPI, Median” value (R5 HIV-2 SLRHC; R5 HIV-2 SLRHC, median of assays) was 135%. For the same molecule, the “EC50 (median)” value (R5X4 HIV-2 77618; HIV-2 77618, R5X4) was over 100 µg/mL, the “EC90 (median)” value (R5X4 HIV-2 77618; HIV-2 77618, R5X4) was over 100 µg/mL and the “MPI: Maximum percent inhibition as determined from the plateau of the sigmoidal curve fit” value (R5X4 HIV-2 77618; Virus: R5X4 HIV-2 77618, individual experiments (Source)) was 6% and −2%. The “MPI, Median” value (R5X4 HIV-2 77618; Virus: R5X4 HIV-2 77618, median of experiments) was 2%, the “EC50, median over the R5 HIV-2 isolates” value (R5 HIV-2 isolates; [2]) was 0.12 µg/mL and the “EC90, median over the R5 HIV-2 isolates” value (R5 HIV-2 isolates; [2]) was 21 µg/mL. For the same molecule, the “median MPI against the R5 HIV-2 isolates” value (R5 HIV-2 isolates; maximum percent inhibition) was 96%, the “MPI, Median Values, all R5 HIV-2 Viruses” value (R5 HIV-2 isolates; median, all R5 HIV-2 viruses) was 96% and the “effect on replication of R5X4 HIV-2 isolates” value (R5X4 HIV-2 isolates) was “did not measurably inhibit replication; also recorded: Neither PRO 140 nor PA14 had any measurable effect on replication”. For the same molecule, the “time cells remain partially coated” value (CCR5 lymphocytes; single 2 mg/kg dose) was over 4 weeks, the “time cells remain partially coated” value (CCR5 lymphocytes; single 5 mg/kg dose) was over 60 days and the “change in rIC50 post-treatment” value ([1]; all subjects) was “Less than 2 fold”. For the same molecule, the “Mean Maximum Percent Inhibition (MPI)” value ([1]; baseline) was 99% (range: 93-100%), the “Mean rIC50” value ([1]; baseline) was 2.0 (range: 0.83-5.1) and the “Mean MPI” value ([1]; post-treatment) was 99% (range: 93-100%). The “Mean rIC50” value ([1]; post-treatment) was 2.1 (range: 0.98-4.71), the “control of viral replication in HIV-1-infected mice” value (HIV-1JR-CSF) was “provides prolonged control of viral replication” and the IC90 (HIV-1) was “about 4 μg/ml”.
